From publication PMC8372230
pKd: −log10 of the molar value.

Biological target: extracellular domain (residues Q18 to S740) of human ACE2 fused with human IgG1 Fc (human) (UniProt Q9BYF1)
Assay: BLI

Chain of UniProt Q9BYF1 (Q9BYF1 18-740): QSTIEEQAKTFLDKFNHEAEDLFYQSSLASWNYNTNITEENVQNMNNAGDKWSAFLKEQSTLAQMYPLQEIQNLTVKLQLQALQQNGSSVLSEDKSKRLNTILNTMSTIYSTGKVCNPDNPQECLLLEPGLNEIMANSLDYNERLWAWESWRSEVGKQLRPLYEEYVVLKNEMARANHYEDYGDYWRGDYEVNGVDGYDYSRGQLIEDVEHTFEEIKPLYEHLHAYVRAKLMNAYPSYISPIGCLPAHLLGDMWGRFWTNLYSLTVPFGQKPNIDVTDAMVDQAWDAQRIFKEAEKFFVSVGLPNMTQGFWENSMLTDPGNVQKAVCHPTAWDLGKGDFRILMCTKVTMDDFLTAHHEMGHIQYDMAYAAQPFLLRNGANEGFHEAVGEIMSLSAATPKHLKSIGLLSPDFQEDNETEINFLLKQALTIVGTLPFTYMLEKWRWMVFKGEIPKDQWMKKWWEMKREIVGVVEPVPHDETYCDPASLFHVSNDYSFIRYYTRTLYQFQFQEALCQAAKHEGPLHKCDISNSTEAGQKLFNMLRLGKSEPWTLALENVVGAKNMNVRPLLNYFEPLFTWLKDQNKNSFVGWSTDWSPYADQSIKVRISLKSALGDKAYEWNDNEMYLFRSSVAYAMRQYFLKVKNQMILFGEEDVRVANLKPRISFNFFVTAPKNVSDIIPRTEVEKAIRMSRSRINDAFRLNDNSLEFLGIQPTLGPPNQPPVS

Work on “yeast-derived monomeric RBD of SARS-CoV-2 (residues 320-550, C-terminal 6x His-tag) (domain or fragment)” yielded a pKd of 8.04, a koff of 0.00239 s⁻¹ and a kon of 264000 M⁻¹ s⁻¹.
